Data as given in paper doi:10.1101/2022.09.08.507146, “Cytomotive actins and tubulins share a polymerisation switch mechanism conferring robust dynamics” (bioRxiv, 2022).

Target: the molecule itself
Assay: cryo-EM structure; BtubA*B single protofilaments, 0.21 mg/mL in HMK100 pH 7.7 with 0.5 mM GMPCPP, 45 s at 20 °C

B1: Prosthecobacter dejongeii BtubA*B heterodimer (BtubA* R284G, R286D, F287G with BtubB) (complex)
chain 1: MKVNNTIVVSIGQAGNQIAASFWKTVCLEHGIDPLTGQTAPGVAPRGNWSSFFSKLGESSSGSYVPRAIMVDLEPSVIDNVKATSGSLFNPANLISRTEGAGGNFAVGYLGAGREVLPEVMSRLDYEIDKCDNVGGIIVLHAIGGGTGSGFGALLIESLKEKYGEIPVLSCAVLPSPQVSSVVTEPYNTVFALNTLRRSADACLIFDNEALFDLAHRKWNIESPTVDDLNLLITEALAGITASMRFSGFLTVEISLRELLTNLVPQPSLHFLMCAFAPLTPPDGSDGEELGIEEMIKSLFDNGSVFAACSPMEGRFLSTAVLYRGIMEDKPLADAALAAMREKLPLTYWIPTAFKIGYVEQPGISHRKSMVLLANNTEIARVLDRICHNFDKLWQRKAFANWYLNEGMSEEQINVLRASAQELVQSYQVAEESGAKAKVQDSAGDTGMRAAAAGVSDDARGSMSLRDLVDRRR
chain 2: MREILSIHVGQCGNQIADSFWRLALREHGLTEAGTLKEGSNAAANSNMEVFFHKVRDGKYVPRAVLVDLEPGVIARIEGGDMSQLFDESSIVRKIPGAANNWARGYNVEGEKVIDQIMNVIDSAVEKTKGLQGFLMTHSIGGGSGSGLGSLILERLRQAYPKKRIFTFSVVPSPLISDSAVEPYNAILTLQRILDNADGAVLLDNEALFRIAKAKLNRSPNYMDLNNIIALIVSSVTASLRFPGKLNTDLSEFVTNLVPFPGNHFLTASFAPMRGAGQEGQVRTNFPDLARETFAQDNFTAAIDWQQGVYLAASALFRGDVKAKDVDENMATIRKSLNYASYMPASGGLKLGYAETAPEGFASSGLALVNHTGIAAVFERLIAQFDIMFDNHAYTHWYENAGVSRDMMAKARNQIATLAQSYRDAS
notes: BtubA*, as m5; BtubB, as m6; The heterodimer as the unit that polymerises into single protofilaments; also called BtubA*B M-loop mutant; mutant BtubAB; source: E. coli C41(DE3), co-expressed and co-purified (HiTrap Q XL, Sephacryl S300, Mono Q)
B1: binds.
